Laboratory results: publication PMC9588060

Legend:
PlGF = PlGF (UniProt P49763); assay: ELISA; settings: Fc fusion
hVEGFA165 (human) = hVEGFA165 (human) (UniProt P15692); assay: ELISA; settings: Fc fusion
[1] = target: PD-L1 (coated in the ELISA) (not stated (human or mouse PD-L1 coated)) (UniProt Q9NZQ7); assay: ELISA; human PD-L1
[2] = target: PD-L1 (coated in the ELISA) (not stated (human or mouse PD-L1 coated)) (UniProt Q9NZQ7); assay: ELISA; mouse PD-L1; settings: Fc fusion

Ate-Grab, sequence (P17948 whole entry, looked up): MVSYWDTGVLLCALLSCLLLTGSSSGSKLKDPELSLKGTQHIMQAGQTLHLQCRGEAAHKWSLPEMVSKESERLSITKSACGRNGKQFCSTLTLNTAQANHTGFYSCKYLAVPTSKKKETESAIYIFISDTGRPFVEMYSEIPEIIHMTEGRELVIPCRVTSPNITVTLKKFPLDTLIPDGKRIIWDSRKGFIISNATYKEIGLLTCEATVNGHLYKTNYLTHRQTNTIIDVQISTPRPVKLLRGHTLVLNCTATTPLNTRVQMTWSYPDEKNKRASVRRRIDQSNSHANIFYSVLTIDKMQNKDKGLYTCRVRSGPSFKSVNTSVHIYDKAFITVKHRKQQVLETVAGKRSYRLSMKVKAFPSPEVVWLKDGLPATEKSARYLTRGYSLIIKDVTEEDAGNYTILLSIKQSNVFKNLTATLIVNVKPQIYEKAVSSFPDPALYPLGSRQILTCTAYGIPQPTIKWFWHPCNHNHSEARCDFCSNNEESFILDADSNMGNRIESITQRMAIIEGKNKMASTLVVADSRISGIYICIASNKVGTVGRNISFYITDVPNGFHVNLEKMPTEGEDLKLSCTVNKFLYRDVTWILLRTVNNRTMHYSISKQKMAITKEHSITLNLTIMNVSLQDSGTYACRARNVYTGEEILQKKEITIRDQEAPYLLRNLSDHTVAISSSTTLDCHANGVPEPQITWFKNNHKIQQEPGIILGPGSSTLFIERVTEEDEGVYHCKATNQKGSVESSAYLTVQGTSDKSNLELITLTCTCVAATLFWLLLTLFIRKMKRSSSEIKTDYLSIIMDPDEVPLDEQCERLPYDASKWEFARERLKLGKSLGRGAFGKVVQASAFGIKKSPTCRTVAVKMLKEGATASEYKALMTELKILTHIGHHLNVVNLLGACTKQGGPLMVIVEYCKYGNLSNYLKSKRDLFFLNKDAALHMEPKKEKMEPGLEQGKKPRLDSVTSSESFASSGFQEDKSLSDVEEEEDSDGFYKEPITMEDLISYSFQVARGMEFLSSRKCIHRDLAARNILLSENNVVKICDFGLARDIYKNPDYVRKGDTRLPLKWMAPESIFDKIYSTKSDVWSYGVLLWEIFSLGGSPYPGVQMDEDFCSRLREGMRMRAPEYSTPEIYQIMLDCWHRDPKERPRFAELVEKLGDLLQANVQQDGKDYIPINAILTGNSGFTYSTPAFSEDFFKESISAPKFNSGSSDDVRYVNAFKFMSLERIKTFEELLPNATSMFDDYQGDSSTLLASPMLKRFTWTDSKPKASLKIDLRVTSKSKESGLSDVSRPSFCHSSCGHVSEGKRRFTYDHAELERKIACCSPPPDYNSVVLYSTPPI
PD-L1 (coated in the ELISA) (not stated (human or mouse PD-L1 coated)), sequence (Q9NZQ7 19-290): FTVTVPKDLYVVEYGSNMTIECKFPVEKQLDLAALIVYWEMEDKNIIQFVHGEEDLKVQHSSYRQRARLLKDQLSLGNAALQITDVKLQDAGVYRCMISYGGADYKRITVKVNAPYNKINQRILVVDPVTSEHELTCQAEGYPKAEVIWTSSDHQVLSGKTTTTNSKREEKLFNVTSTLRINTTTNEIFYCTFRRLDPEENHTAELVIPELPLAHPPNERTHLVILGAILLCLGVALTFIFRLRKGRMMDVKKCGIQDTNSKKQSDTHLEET
VEGF-Grab, sequence (P17948 whole entry, looked up): as the sequence (P17948 whole entry, looked up) above
hVEGFA165 (human), sequence (P15692 other isoform, or with tags, fused parts or gaps): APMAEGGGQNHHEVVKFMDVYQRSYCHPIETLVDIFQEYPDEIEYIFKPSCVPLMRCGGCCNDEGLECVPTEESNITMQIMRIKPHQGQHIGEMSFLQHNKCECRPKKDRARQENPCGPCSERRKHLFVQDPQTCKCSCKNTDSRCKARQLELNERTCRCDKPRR
PlGF, sequence (P49763 19-221): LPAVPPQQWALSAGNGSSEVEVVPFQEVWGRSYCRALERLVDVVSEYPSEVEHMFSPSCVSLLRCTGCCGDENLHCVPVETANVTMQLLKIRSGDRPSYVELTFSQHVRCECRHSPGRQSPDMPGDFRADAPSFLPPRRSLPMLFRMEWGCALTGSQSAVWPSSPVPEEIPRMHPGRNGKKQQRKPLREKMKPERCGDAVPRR

EC50 (PlGF) [nM] | EC50 (hVEGFA165 (human)) [nM] | EC50 ([1]; Fc fusion) [nM] | EC50 [2] [nM] | EC50 [1] [nM] | Substance
0.929 | 0.652 | 0.222 | 0.374 |  | Ate-Grab (from UniProt P17948)
0.619 | 0.686 |  |  |  | VEGF-Grab (from UniProt P17948)
 |  |  |  | 0.107 | Atezolizumab
